This note sets out measurements from patent US20230310573A1 (Janssen / Centocor, published 2023).

Broadly, the EC50 is the concentration at which the effect is half-maximal. For orientation: IC50 means the concentration needed to halve the response being measured.

The target of assay [1] is T1, Recombinant soluble RSV F stabilized in the pre-fusion conformation (soluble, processed, stabilized RSV F … (respiratory syncytial virus (RSV), UniProt P03420 26-513)).
T1 construct: also called RSV pre-fusion F protein; RSV prefusion F
Put plainly: sandwich ELISA: antibody coated, preF titrated, CR9506-HRP detection; preF + compound III, trimer:compound 1:50. For orientation: In an ELISA, binding on a coated surface is turned into a signal by an enzyme label.

The target in assay [2] is T1, Recombinant soluble RSV F stabilized in …. Put plainly: sandwich ELISA: antibody coated, preF titrated, CR9506-HRP detection; preF + DMSO.
The target is the same in assay [3]. Put plainly: sandwich ELISA: antibody coated, preF titrated, CR9506-HRP detection; preF + compound III, trimer:compound 1:3.
The target is the same in assay [4]. Put plainly: sandwich ELISA: antibody coated, preF titrated, CR9506-HRP detection; preF + compound VII, trimer:compound 1:3.
The target is the same in assay [5]. Nature of the assay: sandwich ELISA: antibody coated, preF titrated, CR9506-HRP detection; preF alone.
Assay [6] shares this target. Put plainly: sandwich ELISA: antibody coated, preF titrated, CR9506-HRP detection; preF + compound VII, trimer:compound 1:50.
Assay [7] has the same target. Put plainly: sandwich ELISA: antibody coated, preF titrated, CR9506-HRP detection; preF + compound VII, trimer:compound 1:10.
Assay [8] shares this target. Nature of the assay: sandwich ELISA: antibody coated, preF titrated, CR9506-HRP detection; preF + compound III, trimer:compound 1:10.

B1: CR9506 (antibody, human IgG1, kappa, V domains shown)
VH: EVQLVQSGAEVKKPGSSVKVSCKASGGTFSRSLITWVRQAPGQGLEWMGEISLVFGSAKNAQKFQGRVTITADESTSTAHMEMISLKHEDTAVYYCAAHQYGSGTHNNFWDESELRFDLWGQGTLVTVSS
VL: DIVMTQSPSSLSASVGDRVTIACRASQSIGTYLNWYQQKPGKAPKLLIYAASSLQSGVPSRFSGSGSGTHFTLAISSLQAEDFATYSCQQSYTIPYTFGQGTKLEIKR
notes: An HRP-labelled CR9506 was also the detection antibody in the ELISA; also called CR9506 (pan)
As for B1, the EC50 in assay [1] worked out at 0.31 nM; in assay [2] it was 0.29 nM; in assay [4] it was 0.32 nM; in assay [7] it was 0.29 nM. The results for the “EC50 (half-maximal binding concentration)” value in assay [3], in assay [6] and in assay [8] were 0.3 nM, 0.31 nM and 0.29 nM, respectively. Further, the IC50 in assay [5] was 0.28 nM.
